The values below are quoted from earlier work in publication PMC5548488.

In the data set the target is CAST/ELKS (UniProt Q8K3M6).
Sequence of UniProt Q8K3M6 (Q8K3M6 whole entry): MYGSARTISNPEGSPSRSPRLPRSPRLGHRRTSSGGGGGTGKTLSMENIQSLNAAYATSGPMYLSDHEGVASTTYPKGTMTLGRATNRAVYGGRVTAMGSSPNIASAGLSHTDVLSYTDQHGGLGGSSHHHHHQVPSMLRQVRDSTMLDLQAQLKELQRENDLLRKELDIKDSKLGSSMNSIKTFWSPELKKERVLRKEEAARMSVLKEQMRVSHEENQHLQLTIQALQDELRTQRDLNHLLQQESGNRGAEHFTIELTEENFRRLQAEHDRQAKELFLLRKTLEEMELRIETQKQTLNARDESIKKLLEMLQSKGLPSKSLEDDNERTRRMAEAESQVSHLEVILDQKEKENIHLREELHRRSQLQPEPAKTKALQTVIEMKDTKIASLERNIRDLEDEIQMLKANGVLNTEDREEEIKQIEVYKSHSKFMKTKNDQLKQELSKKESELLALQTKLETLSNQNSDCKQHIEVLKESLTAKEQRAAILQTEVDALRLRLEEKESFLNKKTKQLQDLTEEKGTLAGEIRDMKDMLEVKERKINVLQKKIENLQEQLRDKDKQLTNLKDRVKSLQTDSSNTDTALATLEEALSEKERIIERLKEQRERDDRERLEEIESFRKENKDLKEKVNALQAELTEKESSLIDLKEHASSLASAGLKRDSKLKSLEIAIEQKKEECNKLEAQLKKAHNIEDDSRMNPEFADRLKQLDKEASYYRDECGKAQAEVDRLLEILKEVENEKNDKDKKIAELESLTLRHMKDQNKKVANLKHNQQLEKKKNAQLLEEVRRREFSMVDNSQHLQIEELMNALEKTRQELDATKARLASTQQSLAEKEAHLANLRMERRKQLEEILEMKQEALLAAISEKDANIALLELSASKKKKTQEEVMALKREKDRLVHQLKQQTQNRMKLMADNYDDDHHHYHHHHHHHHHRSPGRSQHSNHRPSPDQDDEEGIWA

As usually defined, the Kd is a measure of binding affinity in units of concentration. For the substance RIM PDZ (from UniProt Q86UR5), the dissociation constant (Kd) was 200 nM.
